Test results from paper PMC6391071, “Mechanisms of opening and closing of the bacterial replicative helicase” (eLife, 2018).
“And” between values parts separate entries of the source, which are not always exact repeats. Equal entries are not always repeated.

B1: bacteriophage λP helicase loader (natural protein, UniProt P03689 1-233, looked up)
chain: MKNIAAQMVNFDREQMRRIANNMPEQYDEKPQVQQVAQIINGVFSQLLATFPASLANRDQNEVNEIRRQWVLAFRENGITTMEQVNAGMRVARRQNRPFLPSPGQFVAWCREEASVTAGLPNVSELVDMVYEYCRKRGLYPDAESYPWKSNAHYWLVTNLYQNMRANALTDAELRRKAADELVHMTARINRGEAIPEPVKQLPVMGGRPLNRAQALAKIAEIKAKFGLKGASV
notes: bacteriophage λ replication protein P (helicase loader), full length, 233 residues, 26,518 Da, untagged; Five copies stand in the predominant complex with the DnaB hexamer; The 6BBM model of λP has no side chains and covers about residues 109-233; also called lambdaP; LP; source: E. coli BL21(DE3), co-expressed with DnaB (pCDFDuet-λP); purified as the BP complex (ammonium sulfate, Q-sepharose, …)
B2: Aquifex aeolicus DnaC helicase loader (natural protein, UniProt O67056 1-235, looked up)
chain: MQDTATCSICQGTGFVKTEDNKVRLCECRFKKRDVNRELNIPKRYWNANLDTYHPKNVSQNRALLTIRVFVHNFNPEEGKGLTFVGSPGVGKTHLAVATLKAIYEKKGIRGYFFDTKDLIFRLKHLMDEGKDTKFLKTVLNSPVLVLDDLGSERLSDWQRELISYIITYRYNNLKSTIITTNYSLQREEESSVRISADLASRLGENVVSKIYEMNELLVIKGSDLRKSKKLSTPS
notes: Aquifex aeolicus DnaC helicase loader; Six copies stand in the complex with the DnaB hexamer; also called AA DnaC; A. aeolicus DnaC; source: E. coli Rosetta (pET24a-AA-DnaC); cells co-lysed with cells expressing AA DnaB; purified as the BC complex (65°C step, heparin sepharose, Q-sepharose, Superdex-200)
B3: Aquifex aeolicus DnaB helicase (enzyme)
chain: LPCDESAERAVLGSMLEDPENIPLVLEYLKEEDFCIDEHKLLFRVLTNLWSEYGNKLDFVLIKDHLEKKNLLQKIPIDWLEELYEEAVSPDTLEEVCKIVKQRSAQRAIIQLGIELIHKGKENKDFHTLIEEAQSRIFSIAESATSTQFYHVKDVAEEVIELIYKFKSSDRLVTGLPSGFTELDLKTTGFHPGDLIILAARPGMGKTAFMLSIIYNLAKDEGKPSAVFSLEMSKEQLVMRLLSMMSEVPLFKIRSGSISNEDLKKLEASAIELAKYDIYLDDTPALTTTDLRIRARKLRKEKEVEFVAVDYLQLLRPPVRKSSRQEEVAEVSRNLKALAKELHIPVMALAQLSREVEKRSDKRPQLADLRESGQIEQDADLILFLHRPEYYKKKPNPEEQGIAEVIIAKQRQGPTDIVKLAFIKEYTKFANLEA
notes: Aquifex aeolicus DnaB replicative helicase; also called AA DnaB; A. aeolicus DnaB; source: E. coli Rosetta (pET24a-AA-DnaB); cells co-lysed with cells expressing AA DnaC; purified as the BC complex (65°C step, heparin sepharose, Q-sepharose, Superdex-200)

Key:
[1] = target: T1, DnaB replicative helicase;lambda P helicase loader (Escherichia coli;bacteriophage lambda, UniProt P0ACB0;P03689 1-471;1-233, |); experiment: native MS; no protein-DNA complex; 450 mM ammonium acetate pH 7.5, 0.5 mM magnesium acetate, 0.01% Tween-20; 5 uM protein, protein:ssDNA 1:1.2, 30 min on ice; conditions: protein: recombinant;recombinant; tags: untagged;; chain copies: 6;5; single strand
T1 sequence (P0ACB0 whole entry, one chain of several): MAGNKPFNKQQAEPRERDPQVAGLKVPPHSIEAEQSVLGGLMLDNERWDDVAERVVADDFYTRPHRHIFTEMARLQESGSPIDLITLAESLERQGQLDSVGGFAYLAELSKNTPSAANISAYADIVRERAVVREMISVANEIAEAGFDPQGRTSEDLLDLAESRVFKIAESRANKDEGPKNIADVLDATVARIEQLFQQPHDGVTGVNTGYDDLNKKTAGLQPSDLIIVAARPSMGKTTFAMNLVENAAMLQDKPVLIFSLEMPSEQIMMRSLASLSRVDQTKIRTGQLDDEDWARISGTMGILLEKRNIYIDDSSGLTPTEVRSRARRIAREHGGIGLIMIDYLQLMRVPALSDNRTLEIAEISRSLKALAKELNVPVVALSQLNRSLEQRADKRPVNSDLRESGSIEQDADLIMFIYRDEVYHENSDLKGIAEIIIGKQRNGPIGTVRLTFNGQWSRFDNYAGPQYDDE

[2] = target: T2, Escherichia coli DnaB helicase (Escherichia coli, UniProt P0ACB0 1-471); experiment: native MS; BP sample in 500 mM ammonium acetate, 0.01% Tween-20, without magnesium acetate; conditions: both partners purified
T2 construct: E. coli DnaB replicative helicase, full length, untagged; Hexamer; The 6BBM model holds residues 17-471 at most; chain A lacks 167-203; also called EcDnaB; E. coli DnaB; source: E. coli BL21(DE3), co-expressed with λP (pET24-DnaB-EC); purified as the BP complex (ammonium sulfate, Q-sepharose, heparin sepharose, methyl HIC)
T2 sequence (P0ACB0 whole entry, the tested form may be a part): as the sequence (P0ACB0 whole entry, one chain of several) above

[3] = target: T2, Escherichia coli DnaB helicase; experiment: native MS; co-purified complex at 5 µM, buffer-exchanged into 450 mM ammonium acetate pH 7.5, 0.5 mM magnesium acetate, 0.01% Tween-20; no ssDNA; conditions: both partners purified
[4] = target: T2, Escherichia coli DnaB helicase; experiment: native MS; BP complex at 5 µM in 450 mM ammonium acetate pH 7.5, 0.5 mM magnesium acetate, 0.01% Tween-20; incubated with the Oriλ-derived 43-mer ssDNA at 1:1.2 for 30 min on ice; conditions: both partners purified
[5] = target: B3; experiment: native MS; co-purified complex at 5 µM, buffer-exchanged into 450 mM ammonium acetate pH 7.5, 0.5 mM magnesium acetate, 0.01% Tween-20; no ssDNA; conditions: both partners purified
[6] = target: the molecule itself; experiment: as above
[7] = target: T1, DnaB replicative helicase;lambda P …; experiment: native MS; B6P5 with one ssDNA, 459.5 kDa; no nucleotide bound; 450 mM ammonium acetate pH 7.5, 0.5 mM magnesium acetate, 0.01% Tween-20; 5 uM protein, protein:ssDNA 1:1.2, 30 min on ice; conditions: protein: recombinant;recombinant; tags: untagged;; chain copies: 6;5; single strand

TTTTTTTTTTTTTTTTTTTTTTTTTTTTTTTTTTTTTTTTTTTTT (ssDNA) [T45]
binding result [1]: no binding

B1
stoichiometry N [2]: 5 λP per DnaB hexamer and 6 λP per DnaB hexamer and 4 λP per DnaB hexamer
stoichiometry N [3]: 5 λP per DnaB hexamer and 6 λP per DnaB hexamer and 4 λP per DnaB hexamer
stoichiometry N [4]: 5 λP per DnaB hexamer

TTTTTTTTTTTTTTTTTTTTTTTTT (ssDNA) [T25]
binding result [1]: no binding

TTTTTTTTTTTTTTTTTTTTTTTTTTTTTTTTTTT (ssDNA) [T35]
binding result [1]: no binding

B2
stoichiometry N [5]: 6 DnaC per DnaB hexamer

B3
stoichiometry N [6]: 6 subunits

TGACGAATAATCTTTTCTTTTTTCTTTTGTAATAGTGTCTTTT (ssDNA) [ori-lambda DUE 43-mer]
binding result [7]: binds
